Columns and labels:
Assay in all cases: ELISA: SEAP-His proteins (1 nM) captured on anti-6-His antibody, antibody B 10 µg/mL with human IgG 100 µg/mL, HRP anti-human IgG, OD450 as % of human EphA4-SEAP-His
[1] = target: T1, human EphA3 extracellular region-SEAP-His protein (human, UniProt P29320 21-541)
T1 construct: extracellular domain; also called Eph receptor extracellular region-SEAP-His protein; not shown: secretory alkaline phosphatase (SEAP); histidine tag
T1 sequence (looked up): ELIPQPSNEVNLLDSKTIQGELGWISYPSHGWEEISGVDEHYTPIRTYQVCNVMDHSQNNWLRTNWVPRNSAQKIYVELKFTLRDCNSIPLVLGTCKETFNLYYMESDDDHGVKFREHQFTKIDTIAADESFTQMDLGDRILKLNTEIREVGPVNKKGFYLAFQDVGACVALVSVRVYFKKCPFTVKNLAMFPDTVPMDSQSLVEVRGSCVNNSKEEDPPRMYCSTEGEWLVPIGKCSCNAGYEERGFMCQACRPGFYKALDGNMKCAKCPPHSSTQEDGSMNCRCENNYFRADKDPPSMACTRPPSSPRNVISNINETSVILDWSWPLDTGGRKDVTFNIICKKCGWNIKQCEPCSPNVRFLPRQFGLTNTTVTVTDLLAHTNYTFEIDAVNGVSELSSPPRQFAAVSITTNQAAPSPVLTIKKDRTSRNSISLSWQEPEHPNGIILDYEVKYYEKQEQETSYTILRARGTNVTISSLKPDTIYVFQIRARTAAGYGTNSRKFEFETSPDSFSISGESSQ

[2] = target: T2, human EphB2 extracellular region-SEAP-His protein (human, UniProt P29323 19-543)
T2 construct: extracellular domain; also called Eph receptor extracellular region-SEAP-His protein; not shown: secretory alkaline phosphatase (SEAP); histidine tag
T2 sequence (looked up): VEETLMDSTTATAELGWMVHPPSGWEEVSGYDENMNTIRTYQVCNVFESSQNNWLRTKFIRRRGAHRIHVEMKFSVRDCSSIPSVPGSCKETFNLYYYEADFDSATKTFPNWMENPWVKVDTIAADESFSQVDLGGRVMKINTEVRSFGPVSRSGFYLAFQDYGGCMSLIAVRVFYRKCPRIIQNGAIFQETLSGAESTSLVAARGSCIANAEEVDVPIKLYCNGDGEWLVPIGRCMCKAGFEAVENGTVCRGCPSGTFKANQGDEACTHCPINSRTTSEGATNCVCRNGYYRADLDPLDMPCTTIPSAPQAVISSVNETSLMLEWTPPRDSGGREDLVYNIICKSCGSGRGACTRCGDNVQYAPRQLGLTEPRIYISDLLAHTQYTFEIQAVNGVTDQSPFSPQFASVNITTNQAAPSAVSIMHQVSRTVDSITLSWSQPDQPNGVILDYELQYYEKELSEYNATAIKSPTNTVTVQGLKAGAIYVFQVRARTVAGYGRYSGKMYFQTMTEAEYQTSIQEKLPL

[3] = target: T3, human EphB3 extracellular region-SEAP-His protein (human, UniProt P54753 34-559)
T3 construct: extracellular domain; also called Eph receptor extracellular region-SEAP-His protein; not shown: secretory alkaline phosphatase (SEAP); histidine tag
T3 sequence (looked up): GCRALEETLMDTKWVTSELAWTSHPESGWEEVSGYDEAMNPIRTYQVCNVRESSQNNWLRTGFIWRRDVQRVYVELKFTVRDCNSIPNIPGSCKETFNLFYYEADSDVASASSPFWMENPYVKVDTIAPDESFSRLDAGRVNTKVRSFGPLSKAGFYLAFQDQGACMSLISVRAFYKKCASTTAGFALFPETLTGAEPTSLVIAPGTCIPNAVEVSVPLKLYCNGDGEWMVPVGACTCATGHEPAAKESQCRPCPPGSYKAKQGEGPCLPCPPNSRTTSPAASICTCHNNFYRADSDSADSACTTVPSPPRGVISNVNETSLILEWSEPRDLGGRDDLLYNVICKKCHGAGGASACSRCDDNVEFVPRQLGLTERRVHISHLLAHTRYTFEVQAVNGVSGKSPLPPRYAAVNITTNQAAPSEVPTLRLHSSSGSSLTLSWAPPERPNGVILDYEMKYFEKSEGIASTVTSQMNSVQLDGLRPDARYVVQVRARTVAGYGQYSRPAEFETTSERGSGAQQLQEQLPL

[4] = target: T4, human EphA7 extracellular region-SEAP-His protein (human, UniProt Q15375 28-555)
T4 construct: extracellular domain; also called Eph receptor extracellular region-SEAP-His protein; not shown: secretory alkaline phosphatase (SEAP); histidine tag
T4 sequence (looked up): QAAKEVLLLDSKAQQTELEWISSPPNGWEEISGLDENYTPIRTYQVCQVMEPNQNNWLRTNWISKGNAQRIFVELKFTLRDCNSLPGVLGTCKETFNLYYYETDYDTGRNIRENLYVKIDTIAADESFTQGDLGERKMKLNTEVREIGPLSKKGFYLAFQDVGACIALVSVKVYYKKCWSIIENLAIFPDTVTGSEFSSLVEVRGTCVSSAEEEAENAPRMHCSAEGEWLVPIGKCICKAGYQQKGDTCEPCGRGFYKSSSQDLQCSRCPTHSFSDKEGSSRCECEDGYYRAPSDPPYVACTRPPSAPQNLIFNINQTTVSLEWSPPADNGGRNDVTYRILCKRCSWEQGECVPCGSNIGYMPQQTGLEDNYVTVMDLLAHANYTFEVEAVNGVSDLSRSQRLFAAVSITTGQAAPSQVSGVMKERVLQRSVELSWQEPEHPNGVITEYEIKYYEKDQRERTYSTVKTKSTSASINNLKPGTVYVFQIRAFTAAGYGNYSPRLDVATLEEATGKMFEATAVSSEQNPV

Measured: binding result

B1: humanized anti-EphA4 monoclonal antibody (antibody B) (antibody, human IgG2, V domains shown)
VH: QVQLVESGGGVVQPGRSLRLSCAVSGFSLTRFGVHWVRQAPGKGLEWVAVIWRGGSTDYNAAFMSRLTISKDNSKNTVYLQMNSLRAEDTAVYYCAKESLFGVYYDYGYYSMDYWGQGTTVTVSS
VL: DIQMTQSPSSLSASVGDRVTITCRASQEISGYLSWLQQKPGKAPKRLIYAASTLDSGVPSRFSGSRSGTEYTLTISSLQPEDFATYYCLQYASYPLTFGGGTKVEIKR
notes: expressed in Expi293F cells; also called humanized antibody of antibody A; HK2-42 / L1-8
no binding (tested: 10 µg/mL): all assays above

— patent US20240010735A1 (EISAI R AND D MANAGEMENT, published 2024)
